Literature values, collected in patent US20050176623A1, “Non-invasive treatment of disease using amphipathic compounds” (priority 2004, published 2005).

Conditions: fractional catabolic rate, kidney

For apolipoprotein A-I [apoA-I], the “normal clearance of apoA-I” value is given as “approximately 0.3 pools/day”.
